Source: patent US9580460B2, “Discordant helix stabilization for prevention of amyloid formation” (AlphaBeta AB, priority 2000, dated 2017)

Assays:
Aβ(1-40) [1] = target: T1, Aβ(1-40) (Homo sapiens, UniProt P05067); test: Fibril formation by Aβ(1-40) with tripeptide ligand, electron microscopy; type: biochemical; details: 100 μM Aβ(1-40), 1 mM ligand peptide, three days at 37° C., PBS pH 7.4, electron microscopy, semi quantitative
T1 construct: purchased Research Genetics, Huntsville, Ala., USA; host or cells: chemical synthesis
Description: (§1) Synthetic peptides corresponding to human Aβ fragments 1-40 (amino acid sequence […]; SEQ ID NO:3), 12-24. and 14-23 were purchased from Research Genetics, Huntsville, Ala., USA. Aβ(1-40) was purified by reverse-phase HPLC over a C18 column, using a linear gradient of acetonitrile running into 0.1% trifluoroacetic acid for elution. The purified peptide was lyophilized, stored at −20° C. and dissolved shortly before experiments. The tripeptides and tetrapeptides were synthesized and purified by reverse-phase HPLC (>70% purity) by Interactiva, Darmstadt, Germany
(§2) The relative abundance and morphology of fibrils was determined by electron microscopy after incubating each of the three Aβ peptides (100 μM) for three days at 37° C. in phosphate buffered saline (50 mM sodium phosphate/150 mM NaCl, pH 7.4) in the presence of 1 mM of a specific tripeptide or tetrapeptide ligand. Aggregates were collected by centrifugation at 20,000×g for 20 minutes. The pellets were suspended in a small volume of water by low-energy sonication for 5 seconds. Aliquots of 8 μl were placed on electron microscopy grids covered by a carbon-stabilized formvar film. Excess fluid was withdrawn after 30 seconds, and after air-drying the grids were negatively stained with 2% uranyl acetate in water. The stained grids were examined and photographed in a Philips CM120TWIN electron microscope operated at 80 kV. For a semi quantitative evaluation of the amount of material in the different specimens, the grids (50 mesh) were first scanned at low magnification and the number of larger fibril bundles per grid square estimated. The specimens were subsequently examined at high magnification to judge the size of the fibril bundles, the presence of smaller fibril aggregates, and the morphology of the individual fibrils.

Aβ(1-40) [2] = target: T1, Aβ(1-40); test: Time-dependent aggregation of Aβ(1-40), amount left in solution after 20,000 xg centrifugation; type: biochemical; details: in the presence of the peptide; Aβ(1-40) left in solution after 20,000 xg centrifugation
Excerpt: The effects of the peptides KAD, AAA, and KFFE (SEQ ID NO:1) on the time-dependent aggregation of Aβ(1-40), determined as the amount of Aβ(1-40) left in solution after 20,000 xg centrifugation, were studied. In the presence of AAA, Aβ(1-40) completely aggregated in 10-15 days. In the presence of KAD, Aβ(1-40) completely aggregated in 30-40 days. In the presence of KFFE (SEQ ID NO:1), Aβ(1-40) completely aggregated in about 3 days (FIG. 8).

[3] = conditions where Aβ(1-42) readily forms fibrils; Tjernberg et al. 1996, 1999; cited from earlier work
Aβ(14-23) = target: T2, Aβ(14-23) (Homo sapiens, UniProt P05067); test: Fibril formation by Aβ(14-23) with tripeptide or tetrapeptide ligand, electron microscopy; type: biochemical; details: for reduction of Aβ fibrillation or aggregation: summary statement, Aβ peptide not specified (FIG. 7: Aβ(14-23)); for density of Aβ(14-23) fibrils (fibril formation): 100 μM Aβ(14-23), 1 mM ligand peptide, three days at 37° C., PBS pH 7.4, electron microscopy, semi quantitative
T2 construct: 12-24. and 14-23 were purchased from Research Genetics; purchased Research Genetics, Huntsville, Ala., USA; host or cells: chemical synthesis
Description: as §1, §2

Aβ(12-24) = target: T3, Aβ(12-24) (Homo sapiens, UniProt P05067); test: Fibril formation by Aβ(12-24) with tripeptide ligand, electron microscopy; type: biochemical; details: 100 μM Aβ(12-24), 1 mM ligand peptide, three days at 37° C., PBS pH 7.4, electron microscopy, semi quantitative
T3 construct: 12-24. and 14-23 were purchased from Research Genetics; purchased Research Genetics, Huntsville, Ala., USA; host or cells: chemical synthesis
Description: as §1
as §2, with “Excess fluid was withdrawn after 30 seconds, and after air-drying the grids were negatively stained with 2% uranyl acetate in water. The stained grids were examined and photographed in a Philips CM120TWIN electron microscope operated at 80 kV.” left out, “The specimens were subsequently examined at high magnification to judge the size of the fibril bundles, the presence of smaller fibril aggregates, and the morphology of the individual fibrils.” left out

Aβ(1-40) [4] = target: T1, Aβ(1-40); test: Fibril morphology of Aβ(1-40) in the presence of peptides, electron microscopy; type: biochemical; details: in the presence of the peptide, compared with AAA or acetyl-AAA-amide
Description: as §2

[5] = Fibril formation of proteins with long discordant helices, electron microscopy of 20,000×g pellets; type: physicochemical; details: 10 μM to 100 μM in phosphate buffered saline pH 7.4, 37° C., three days
Excerpt: The proteins used in these experiments included SP-C (lung SP-C forms amyloid in pulmonary alveolar proteinosis) purified from porcine lungs (Curstedt et al, 1987, Eur. J. Biochem. 168:255-262). PolyVal→polyLeu substituted SP-C (SP-C(Leu)) analogue was synthesized as described by Nilsson et al. (1998, Eur. J. Biochem, 255:116-124) was used in the experiments as was D-analyl-D-alanine transpeptidase from Streptomyces R61 was obtained from Drs. Frére and Joris, University of Liege, Belgium (Frere et al, 1973, Biochem. J. 135:463-468). Triacylglycerol lipase from Candida antarctica and human coagulation factor XIII were purchased from Sigma. For these fibrillation studies the latter three proteins were dissolved in phosphate buffered saline, pH 7.4, in concentrations ranging from 10 μM to 100 μM. SP—C and SP-C (Leu) were dissolved at 100 μM or 250 μM in chloroform/methanol/0.1 M HCl, 32:64:5 (by volume).
To assay for the formation of fibrils, the protein solutions were incubated at 37° C. for three days, then centrifuged at 20,000×g for 20 minutes. The concentrations of SP-C and SP-C(Leu) in the supernatants were determined by amino acid analysis of triplicate samples. Peptide concentration at start of the incubations was 250 μM for SP-C(Leu) and 100 μM for SP-C. […]

T1 sequence (P05067 672-711): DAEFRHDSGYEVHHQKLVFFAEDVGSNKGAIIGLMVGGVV

Substance	density of Aβ(1-40) fibrils (fibril formation) (Aβ(1-40) [1])	time until Aβ(1-40) completely aggregated (Aβ(1-40) [2])	density of Aβ(14-23) fibrils (fibril formation) (Aβ(14-23))	other results
AAA	no significant effect	10 to 15 days		
Aβ(1-28) with alanine substitutions at positions 16, 17, and 20: Aβ(1-28) variant K16A, L17A, F20A (DAEFRHDSGYEVHHQAAVFAAEDVGSNK; Amyloid-beta protein 42; UniProt P05067 672-699, looked up, variant K16A L17A F20A)				fibril formation of the Aβ analogue itself [3]: does not form fibrils
KAAE (Synthetically generated peptide) [dipolar tetrapeptide KAAE]				reduction of Aβ fibrillation or aggregation (Aβ(14-23)): did not reduce
KAD	significant reduction of fibril density	30 to 40 days	significant reduction of fibril density	density of Aβ(12-24) fibrils (fibril formation) (Aβ(12-24)): significant reduction of fibril density; morphology of Aβ(1-40) fibrillar structures (Aβ(1-40) [4]): much shorter and more dispersed
KFD [dipolar tripeptide, central Ala of KAD replaced with Phe]			reduced Aβ(14-23) fibril formation, but to a lesser extent than KAD	
KFFE (Synthetically generated peptide) [dipolar tetrapeptide KFFE]		about 3 days	slightly promote fibril formation	reduction of Aβ fibrillation or aggregation (Aβ(14-23)): did not reduce
acetyl-AAA-amide	no significant effect			
acetyl-KAD-amide (Ac-Lys-Ala-Asp-NH2)	equally efficient in reducing Aβ(1-40) fibril formation as the KAD peptide with free termini			morphology of Aβ(1-40) fibrillar structures (Aβ(1-40) [4]): much shorter and more dispersed
coagulation factor XIII: human coagulation factor XIII, purchased from Sigma				fibril formation of the protein itself [5]: form fibrils
unsubstituted Aβ(1-28): positions 1-28 of human Aβ				fibril formation of the Aβ analogue itself [3]: forms fibrils
